Measured values from the supplement of paper PMC10567573.

B1: BRF1 (parent)
chain: FVESSGGGSSAVGQFVSLDGAGKT
B2: ANKRD9 (parent)
chain: VGAAGSARQELLGDRPRWQRLLGE

Variants of: B1
Assay: protein stability index of a GFP-peptide fusion (GPS, HEK-293T) (PSI 1-6); higher = more stable
Conditions: c terminus: a fixed tail appended
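Note: lentivirally expressed fusions sorted by FACS into six bins by GFP to DsRed ratio, PSI derived from sequencing read proportions per bin multiplied by bin number.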

| Variant | protein stability index |
| --- | --- |
| FVESSGGGSSAVGQFVSLDGAGKG | 2.26 |
| FVESSGGGSSAVGQFVSLDGAGKA | 2.98 |
| FVESSGGGSSAVGQFVSLDGAGKN | 2.15 |
| FVESSGGGSSAVGQFVSLDGAGKI | 2.59 |
| FVESSGGGSSAVGQFVSLDGAGKV | 2.33 |
| FVESSGGGSSAVGQFVSLDGAGKL | 2.02 |
| FVESSGGGSSAVGQFVSLDGAGKD | 2.72 |
| FVESSGGGSSAVGQFVSLDGAGKF | 1.62 |
| FVESSGGGSSAVGQFVSLDGAGKW | 2.24 |
| FVESSGGGSSAVGQFVSLDGAGKH | 1.79 |
| FVESSGGGSSAVGQFVSLDGAGKR | 3.12 |
| FVESSGGGSSAVGQFVSLDGAGKQ | 2.86 |
| FVESSGGGSSAVGQFVSLDGAGKY | 1.85 |
| FVESSGGGSSAVGQFVSLDGAGKE | 2.3 |
| FVESSGGGSSAVGQFVSLDGAGKP | 2.48 |
| FVESSGGGSSAVGQFVSLDGAGKS | 2.19 |
| FVESSGGGSSAVGQFVSLDGAGKM | 2 |

Variants of: B2
Assay: as above
Conditions: c terminus: a fixed tail appended

| Variant | protein stability index |
| --- | --- |
| VGHAGSARQELLGDRPRWQRLLGE | 2.91 |
| VGDAGSARQELLGDRPRWQRLLGE | 3.81 |
| VGKAGSARQELLGDRPRWQRLLGE | 2.86 |
| VGCAGSARQELLGDRPRWQRLLGE | 1.52 |
| VGNAGSARQELLGDRPRWQRLLGE | 3.19 |
| VGFAGSARQELLGDRPRWQRLLGE | 2.52 |
| VGQAGSARQELLGDRPRWQRLLGE | 3 |
| VGIAGSARQELLGDRPRWQRLLGE | 3.48 |
| VGEAGSARQELLGDRPRWQRLLGE | 3.55 |
| VGVAGSARQELLGDRPRWQRLLGE | 3.89 |
| VGPAGSARQELLGDRPRWQRLLGE | 3.58 |
| VGRAGSARQELLGDRPRWQRLLGE | 3.06 |
| VGWAGSARQELLGDRPRWQRLLGE | 2.53 |
| VGTAGSARQELLGDRPRWQRLLGE | 3.14 |
| VGGAGSARQELLGDRPRWQRLLGE | 3.49 |
| VGSAGSARQELLGDRPRWQRLLGE | 2.78 |
| VGMAGSARQELLGDRPRWQRLLGE | 2.53 |
| VSAAGSARQELLGDRPRWQRLLGE | 3.39 |
| VVAAGSARQELLGDRPRWQRLLGE | 2.33 |
| VFAAGSARQELLGDRPRWQRLLGE | 2.57 |
| VIAAGSARQELLGDRPRWQRLLGE | 2.67 |
| VTAAGSARQELLGDRPRWQRLLGE | 3.06 |
| VNAAGSARQELLGDRPRWQRLLGE | 3.82 |
| VCAAGSARQELLGDRPRWQRLLGE | 2.24 |
| VHAAGSARQELLGDRPRWQRLLGE | 2.56 |
| VPAAGSARQELLGDRPRWQRLLGE | 3.11 |

| Variant | protein stability index |
| --- | --- |
| VYAAGSARQELLGDRPRWQRLLGE | 2.24 |
| VEAAGSARQELLGDRPRWQRLLGE | 3.29 |
| VWAAGSARQELLGDRPRWQRLLGE | 2 |
| VMAAGSARQELLGDRPRWQRLLGE | 2.69 |
| VAAAGSARQELLGDRPRWQRLLGE | 3.23 |
| VLAAGSARQELLGDRPRWQRLLGE | 2.71 |
| VQAAGSARQELLGDRPRWQRLLGE | 4.06 |
| VRAAGSARQELLGDRPRWQRLLGE | 4.84 |
| VDAAGSARQELLGDRPRWQRLLGE | 3.32 |
| VGACGSARQELLGDRPRWQRLLGE | 2.09 |
| VGAPGSARQELLGDRPRWQRLLGE | 3.39 |
| VGAWGSARQELLGDRPRWQRLLGE | 2.62 |
| VGAFGSARQELLGDRPRWQRLLGE | 2.44 |
| VGATGSARQELLGDRPRWQRLLGE | 4.35 |
| VGAEGSARQELLGDRPRWQRLLGE | 2.91 |
| VGAGGSARQELLGDRPRWQRLLGE | 1.81 |
| VGAQGSARQELLGDRPRWQRLLGE | 4.11 |
| VGALGSARQELLGDRPRWQRLLGE | 3.18 |
| VGAVGSARQELLGDRPRWQRLLGE | 2.92 |
| VGAYGSARQELLGDRPRWQRLLGE | 2.08 |
| VGADGSARQELLGDRPRWQRLLGE | 3.35 |
| VGAIGSARQELLGDRPRWQRLLGE | 2.84 |
| VGAMGSARQELLGDRPRWQRLLGE | 3.1 |
| VGAKGSARQELLGDRPRWQRLLGE | 2.11 |
| VGASGSARQELLGDRPRWQRLLGE | 3.24 |
| VGARGSARQELLGDRPRWQRLLGE | 3.02 |

| Variant | protein stability index |
| --- | --- |
| LGAAGSARQELLGDRPRWQRLLGE | 2.86 |
| MGAAGSARQELLGDRPRWQRLLGE | 3.03 |
| DGAAGSARQELLGDRPRWQRLLGE | 4.49 |
| PGAAGSARQELLGDRPRWQRLLGE | 3.62 |
| TGAAGSARQELLGDRPRWQRLLGE | 3.38 |
| IGAAGSARQELLGDRPRWQRLLGE | 2.35 |
| GGAAGSARQELLGDRPRWQRLLGE | 3.13 |
| KGAAGSARQELLGDRPRWQRLLGE | 3.69 |
| CGAAGSARQELLGDRPRWQRLLGE | 1.95 |
| RGAAGSARQELLGDRPRWQRLLGE | 2.75 |
| AGAAGSARQELLGDRPRWQRLLGE | 3.58 |
| FGAAGSARQELLGDRPRWQRLLGE | 2.7 |
| EGAAGSARQELLGDRPRWQRLLGE | 2.77 |
| YGAAGSARQELLGDRPRWQRLLGE | 2.56 |
| QGAAGSARQELLGDRPRWQRLLGE | 3.7 |
| HGAAGSARQELLGDRPRWQRLLGE | 3.33 |
| VGAACSARQELLGDRPRWQRLLGE | 1.49 |
| VGAAHSARQELLGDRPRWQRLLGE | 2.68 |
| VGAAESARQELLGDRPRWQRLLGE | 4.56 |
| VGAAKSARQELLGDRPRWQRLLGE | 2.69 |
| VGAAISARQELLGDRPRWQRLLGE | 2.69 |
| VGAAASARQELLGDRPRWQRLLGE | 3 |
| VGAADSARQELLGDRPRWQRLLGE | 2.48 |
| VGAAFSARQELLGDRPRWQRLLGE | 2.86 |
| VGAALSARQELLGDRPRWQRLLGE | 2.68 |
